In patent US20240391954A1, “MC4R AGONIST PEPTIDES” (The Regents of the University of Michigan, priority 2021, published 2024):
Positions of bridges follow the written chain, without caps; N, C: chain ends. Non-standard residues stand in square brackets, D forms with d. Phe(4-Br) = N[C@@H](Cc1ccc(Br)cc1)C(=O)O; dPhe(4-Br) = N[C@H](Cc1ccc(Br)cc1)C(=O)O; dPhe(4-I) = N[C@H](Cc1ccc(I)cc1)C(=O)O; d(hPhe) = N[C@H](CCc1ccccc1)C(=O)O; Nle = CCCC[C@H](N)C(=O)O; R2 = not defined here

B1: CTX-1216 (peptide)
peptide: Ac-RC[dA]R[dPhe(4-Br)]R[dW]CKPV-NH2
modifications: disulfide 2-8
SMILES: CC(=O)N[C@@H](CCCNC(=N)N)C(=O)N[C@H]1CSSC[C@@H](C(=O)N[C@@H](CCCCN)C(=O)N2CCC[C@H]2C(=O)N[C@H](C(N)=O)C(C)C)NC(=O)[C@@H](Cc2c[nH]c3ccccc23)NC(=O)[C@H](CCCNC(=N)N)NC(=O)[C@@H](Cc2ccc(Br)cc2)NC(=O)[C@H](CCCNC(=N)N)NC(=O)[C@@H](C)NC1=O
B2: CTX-1217 (peptide)
peptide: Ac-RC[dA]R[dPhe(4-Br)]R[dW]CKP-NH2
modifications: disulfide 2-8
SMILES: CC(=O)N[C@@H](CCCNC(=N)N)C(=O)N[C@H]1CSSC[C@@H](C(=O)N[C@@H](CCCCN)C(=O)N2CCC[C@H]2C(N)=O)NC(=O)[C@@H](Cc2c[nH]c3ccccc23)NC(=O)[C@H](CCCNC(=N)N)NC(=O)[C@@H](Cc2ccc(Br)cc2)NC(=O)[C@H](CCCNC(=N)N)NC(=O)[C@@H](C)NC1=O
B3: CTX-1218 (peptide)
peptide: Ac-RC[dA]R[dPhe(4-Br)]R[dW]CK-NH2
modifications: disulfide 2-8
SMILES: CC(=O)N[C@@H](CCCNC(=N)N)C(=O)N[C@H]1CSSC[C@@H](C(=O)N[C@@H](CCCCN)C(N)=O)NC(=O)[C@@H](Cc2c[nH]c3ccccc23)NC(=O)[C@H](CCCNC(=N)N)NC(=O)[C@@H](Cc2ccc(Br)cc2)NC(=O)[C@H](CCCNC(=N)N)NC(=O)[C@@H](C)NC1=O
B4: CTX-1219 (peptide)
peptide: Ac-RC[dA]R[dPhe(4-Br)]R[dW]CRFG-OH
modifications: disulfide 2-8
SMILES: CC(=O)N[C@@H](CCCNC(=N)N)C(=O)N[C@H]1CSSC[C@@H](C(=O)N[C@@H](CCCNC(=N)N)C(=O)N[C@@H](Cc2ccccc2)C(=O)NCC(=O)O)NC(=O)[C@@H](Cc2c[nH]c3ccccc23)NC(=O)[C@H](CCCNC(=N)N)NC(=O)[C@@H](Cc2ccc(Br)cc2)NC(=O)[C@H](CCCNC(=N)N)NC(=O)[C@@H](C)NC1=O
B5: CTX-1220 (peptide)
peptide: Ac-RC[dA]R[dPhe(4-Br)]R[dW]CRF-NH2
modifications: disulfide 2-8
SMILES: CC(=O)N[C@@H](CCCNC(=N)N)C(=O)N[C@H]1CSSC[C@@H](C(=O)N[C@@H](CCCNC(=N)N)C(=O)N[C@@H](Cc2ccccc2)C(N)=O)NC(=O)[C@@H](Cc2c[nH]c3ccccc23)NC(=O)[C@H](CCCNC(=N)N)NC(=O)[C@@H](Cc2ccc(Br)cc2)NC(=O)[C@H](CCCNC(=N)N)NC(=O)[C@@H](C)NC1=O
B6: CTX-1222 (peptide)
peptide: Ac-RC[dA]R[dPhe(4-Br)]R[dW]CR[dF]-NH2
modifications: disulfide 2-8
SMILES: CC(=O)N[C@@H](CCCNC(=N)N)C(=O)N[C@H]1CSSC[C@@H](C(=O)N[C@@H](CCCNC(=N)N)C(=O)N[C@H](Cc2ccccc2)C(N)=O)NC(=O)[C@@H](Cc2c[nH]c3ccccc23)NC(=O)[C@H](CCCNC(=N)N)NC(=O)[C@@H](Cc2ccc(Br)cc2)NC(=O)[C@H](CCCNC(=N)N)NC(=O)[C@@H](C)NC1=O
B7: CTX-1226 (peptide)
peptide: R2-RC[dA]R[dPhe(4-Br)]R[dW]C-NH2
modifications: disulfide 2-8; reading uncertain; also: printed as N-term. Mod. R2; Arg-cyclo(Cys-D-Ala-Arg-D-Phe(4-Br)-Arg-D-Trp-Cys)-NH2
B8: CTX-1229 (peptide)
peptide: Ac-R[Nle]CH[dPhe(4-Br)]RWC-NH2
modifications: disulfide 3-8
SMILES: CCCC[C@H](NC(=O)[C@H](CCCNC(=N)N)NC(C)=O)C(=O)N[C@H]1CSSC[C@@H](C(N)=O)NC(=O)[C@H](Cc2c[nH]c3ccccc23)NC(=O)[C@H](CCCNC(=N)N)NC(=O)[C@@H](Cc2ccc(Br)cc2)NC(=O)[C@H](Cc2c[nH]cn2)NC1=O
B9: CTX-1230 (peptide)
peptide: Ac-R[Nle]CR[dPhe(4-Br)]RWC-NH2
modifications: disulfide 3-8
SMILES: CCCC[C@H](NC(=O)[C@H](CCCNC(=N)N)NC(C)=O)C(=O)N[C@H]1CSSC[C@@H](C(N)=O)NC(=O)[C@H](Cc2c[nH]c3ccccc23)NC(=O)[C@H](CCCNC(=N)N)NC(=O)[C@@H](Cc2ccc(Br)cc2)NC(=O)[C@H](CCCNC(=N)N)NC1=O
B10: CTX-1231 (peptide)
peptide: Ac-R[Nle]CH[dPhe(4-Br)]R[dW]C-NH2
modifications: disulfide 3-8
SMILES: CCCC[C@H](NC(=O)[C@H](CCCNC(=N)N)NC(C)=O)C(=O)N[C@H]1CSSC[C@@H](C(N)=O)NC(=O)[C@@H](Cc2c[nH]c3ccccc23)NC(=O)[C@H](CCCNC(=N)N)NC(=O)[C@@H](Cc2ccc(Br)cc2)NC(=O)[C@H](Cc2c[nH]cn2)NC1=O
B11: CTX-1232 (peptide)
peptide: Ac-R[Nle]CR[dPhe(4-Br)]R[dW]C-NH2
modifications: disulfide 3-8
SMILES: CCCC[C@H](NC(=O)[C@H](CCCNC(=N)N)NC(C)=O)C(=O)N[C@H]1CSSC[C@@H](C(N)=O)NC(=O)[C@@H](Cc2c[nH]c3ccccc23)NC(=O)[C@H](CCCNC(=N)N)NC(=O)[C@@H](Cc2ccc(Br)cc2)NC(=O)[C@H](CCCNC(=N)N)NC1=O
B12: CTX-1234 (peptide)
peptide: Ac-[Nle]CH[dPhe(4-I)]R[dW]C-NH2
modifications: disulfide 2-7
SMILES: CCCC[C@H](NC(C)=O)C(=O)N[C@H]1CSSC[C@@H](C(N)=O)NC(=O)[C@@H](Cc2c[nH]c3ccccc23)NC(=O)[C@H](CCCNC(=N)N)NC(=O)[C@@H](Cc2ccc(I)cc2)NC(=O)[C@H](Cc2c[nH]cn2)NC1=O
B13: CTX-1239 (peptide)
peptide: Ac-RC[dA]R[d(hPhe)]R[dW]C-NH2
modifications: disulfide 2-8
SMILES: CC(=O)N[C@@H](CCCNC(=N)N)C(=O)N[C@H]1CSSC[C@@H](C(N)=O)NC(=O)[C@@H](Cc2c[nH]c3ccccc23)NC(=O)[C@H](CCCNC(=N)N)NC(=O)[C@@H](CCc2ccccc2)NC(=O)[C@H](CCCNC(=N)N)NC(=O)[C@@H](C)NC1=O
B14: CTX-1612 (peptide)
peptide: Ac-R[Nle]CR[dPhe(4-Br)]RWC-NH2
modifications: disulfide 3-8
SMILES: CCCC[C@H](NC(=O)[C@H](CCCNC(=N)N)NC(C)=O)C(=O)N[C@H]1CSSC[C@@H](C(N)=O)NC(=O)[C@H](Cc2c[nH]c3ccccc23)NC(=O)[C@H](CCCNC(=N)N)NC(=O)[C@@H](Cc2ccc(Br)cc2)NC(=O)[C@H](CCCNC(=N)N)NC1=O
B15: CTX-1613 (peptide)
peptide: Ac-R[Nle]CR[dPhe(4-Br)]R[dW]C-NH2
modifications: disulfide 3-8
SMILES: CCCC[C@H](NC(=O)[C@H](CCCNC(=N)N)NC(C)=O)C(=O)N[C@H]1CSSC[C@@H](C(N)=O)NC(=O)[C@@H](Cc2c[nH]c3ccccc23)NC(=O)[C@H](CCCNC(=N)N)NC(=O)[C@@H](Cc2ccc(Br)cc2)NC(=O)[C@H](CCCNC(=N)N)NC1=O

Tests used:
Assay in all cases: cell-based or functional assay
human MC4R receptor [1] = target: T1, human MC4R receptor (human, UniProt P32245 1-332)
T1 sequence (P32245 whole entry): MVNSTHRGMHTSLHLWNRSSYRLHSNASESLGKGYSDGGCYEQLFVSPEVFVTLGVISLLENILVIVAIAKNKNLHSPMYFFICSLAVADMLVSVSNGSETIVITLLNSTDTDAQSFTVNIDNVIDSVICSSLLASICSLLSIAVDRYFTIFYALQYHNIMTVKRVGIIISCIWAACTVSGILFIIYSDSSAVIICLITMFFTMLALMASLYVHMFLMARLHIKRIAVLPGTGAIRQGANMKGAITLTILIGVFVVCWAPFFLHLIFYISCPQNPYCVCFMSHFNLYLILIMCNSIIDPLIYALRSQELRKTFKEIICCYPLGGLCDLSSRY

human MC4R receptor [2] = target: T1, human MC4R receptor; remark: listed apart in the source
human MC3R = human MC3R (human, UniProt P41968 1-323)
Sequence of human MC3R (P41968 whole entry): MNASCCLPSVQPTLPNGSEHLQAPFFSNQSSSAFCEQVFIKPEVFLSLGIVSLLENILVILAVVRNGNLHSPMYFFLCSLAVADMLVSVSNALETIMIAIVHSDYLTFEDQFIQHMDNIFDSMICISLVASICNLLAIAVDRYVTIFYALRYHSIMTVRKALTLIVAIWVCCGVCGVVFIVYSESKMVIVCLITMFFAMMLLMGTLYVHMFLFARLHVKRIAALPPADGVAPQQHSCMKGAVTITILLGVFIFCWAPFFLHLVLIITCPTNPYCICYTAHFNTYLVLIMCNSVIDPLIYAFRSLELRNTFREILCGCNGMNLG

Binder | MC4R selectivity vs MC1R (human MC4R receptor [1]) | MC4R selectivity vs MC3R (human MC4R receptor [1]) | % max activation (human MC4R receptor [2]) | cAMP EC50 (human MC4R receptor [2]) | % max activation (human MC3R) | cAMP EC50 (human MC3R)
Ac-RC[dA]R[Phe(4-Br)]RWC-NH2 (disulfide 2-8) [CTX-1212] | 0.07 | 0.07 | 55% | 393 nM | 0.1% | 28 nM
Ac-RC[dA]R[dPhe(4-Br)]R[dW]C-NH2 (disulfide 2-8) [CTX-1214] | – | – | 74% | 2.6 nM | 15% | 4.1 nM
Ac-RC[dA]R[Phe(4-Br)]R[dW]C-NH2 (disulfide 2-8) [CTX-1215] | 0.07 | 0.05 | 56% | 592 nM | 2.1% | 27 nM
B1 | – | – | – | – | 11% | 3.5 nM
B2 | 1.12 | 2.73 | 69% | 1.5 nM | 13% | 4 nM
B3 | 1 | 1.85 | 77% | – | 16% | –
B4 | 1 | 1.99 | 76% | 2.3 nM | 20% | 4.5 nM
B5 | 1.53 | 3.82 | 76% | 1.87 nM | 21% | 7.2 nM
B6 | 0.1 | 0.33 | 79% | 30 nM | 38% | 9.8 nM
B7 | 1.33 | 3.21 | 71% | 3.8 nM | 29% | 12 nM
B8 | – | – | 31% | 18 nM | 16% | 3.5 nM
B9 | – | – | – | 1.4 nM | – | 3.9 nM
B10 | 0.19 | 3.04 | 64% | 2.3 nM | 59% | 7 nM
B11 | – | – | – | 2.4 nM | – | 6 nM
B12 | – | – | – | – | 18% | 3.4 nM
B13 | – | – | – | 249 nM | – | 74 nM
Ac-RC[dA]R[d(hPhe)]R[dW]C-NH2 (disulfide 2-8) [CTX-1277] | – | – | – | 429 nM | – | 45 nM
B14 | – | – | – | 2 nM | – | 4.5 nM
B15 | – | – | – | 1.9 nM | – | 4 nM
